Measurements as given in publication PMC5941314 (2018).

Legend:
Test in all cases: ITC 25 C, TWO LABS merged (one a row), salt differs
[1] = target: UBE2D2 (Homo sapiens (Human), UniProt P62837)
[2] = target: UBE2L3 (Homo sapiens (Human), UniProt P68036)
[3] = target: T1, UBE2N (Homo sapiens (Human), UniProt P61088)
T1 chain: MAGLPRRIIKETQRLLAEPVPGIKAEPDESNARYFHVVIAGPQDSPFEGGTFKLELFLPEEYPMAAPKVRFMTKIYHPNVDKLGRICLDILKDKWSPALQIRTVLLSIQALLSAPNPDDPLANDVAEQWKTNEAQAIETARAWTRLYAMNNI

Chain of UBE2L3 (P68036 whole entry): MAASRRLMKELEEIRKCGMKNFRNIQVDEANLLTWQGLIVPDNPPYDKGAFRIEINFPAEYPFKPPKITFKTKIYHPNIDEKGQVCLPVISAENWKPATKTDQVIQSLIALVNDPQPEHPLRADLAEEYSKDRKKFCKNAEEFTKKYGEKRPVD
Chain of UBE2D2 (P62837 whole entry, looked up): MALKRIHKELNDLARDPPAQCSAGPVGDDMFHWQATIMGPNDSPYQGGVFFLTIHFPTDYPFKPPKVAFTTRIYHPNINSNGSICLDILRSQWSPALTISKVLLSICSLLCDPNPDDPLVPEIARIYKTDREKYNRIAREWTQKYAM

Kd [1]: 32 µM | Kd [2]: 27.3 µM | Kd [3]: 264 µM
B1: Arkadia (protein)
chain: KQDGEEGTEEDTEEKCTICLSILEEGEDVRRLPCMHLFHQVCVDQWLITNKKCPICRVDIEAQLPSES
